Patent US20240327477A1, “COMPOSITIONS AND METHODS FOR THE TREATMENT OF TDP-43 PROTEINOPATHIES” (SOLA BIOSCIENCES LLC, priority 2020, published 2024)

Key:
Format in all cases: cell-based
[1] = target: T1, phosphorylated GFP-TDP43CTF reporter (Homo sapiens, UniProt Q13148); assay: Immunoblot with anti-phospho TDP43 antibody (cell extracts and fractions); conditions: cell extracts, anti-phosphoTDP43 antibody, Table 13 (FIG. 12)
T1 construct: expressed in transfected cells; host or cells: HEK293

[2] = target: T1, phosphorylated GFP-TDP43CTF reporter; assay: as above
Source text: Cells expressing either GFP-TDP43FL (lanes 1 and 7) or GFP-TDP43CTF (lanes 2-6, 8-12) were co-transfected with Construct 3 (lanes 3 and 9), Construct 17 (lanes 4 and 10), Construct 18 (lanes 5 and 11) and Construct 19 (lanes 6 and 12). Soluble fractions (lanes 1-6) and insoluble fractions (lanes 7-12) were probed with anti-phospho TDP43 antibodies.
(§1) Expression vector plasmids encoding various protein constructs were transfected into HEK293 cells with Lipofectamine 3000 transfection reagent (Thermo Fisher Scientific). Cell lysates were analyzed for expressed proteins using immunoblot assays. Samples of culture media were centrifuged to remove debris prior to analysis. Cells were lysed in a lysis buffer (10 mM Tris-HCl, pH 8.0, 150 mM NaCl, 10 mM EDTA, 2% SDS) containing 2 mM PMSF and protease cocktail (Complete Protease Inhibitor Cocktail; Sigma). After brief sonication, the samples were analyzed for expressed proteins using immunoblot assays. For immunoblot analysis, samples were boiled in an SDS-sample buffer and run on polyacrylamide electrophoresis. Thereafter, the separated protein bands were transferred to a PVDF membrane.
(§2) Expressed proteins were detected using a chemiluminescent signal. Briefly, blots were reacted with a primary antibody capable of binding the particular epitope (e.g., GFP). After rinsing away the unreacted primary antibody, a secondary, enzyme-linked antibody (e.g., HRP-linked anti-lgG antibody) was allowed to react with the primary antibody molecules bound to the blots. Following rinsing, a chemiluminescent reagent was added, and the resultant chemiluminescent signals in the blots were captured on X-ray film.
Transfected HEK293 cells are homogenized in RIPA buffer (50 mM Tris, pH7.5, 150 mM NaCl, 0.1% NP-40, 0.5% sodium deoxycholate, 0.1% SDS) supplemented with protease inhibitor cocktail, 2 mM PMSF, 10 mM NaF, and 2 mM Na3VO4. After brief sonication, protein concentration is measured by BCA assay kit (Pierce). […]

GFP-TDP43CTF = target: T2, GFP-TDP43CTF (Homo sapiens, UniProt Q13148); assay: Fluorescence microscopy of GFP-TDP43CTF aggregation (GFP foci) in transfected HEK293 cells; conditions: HEK293 cells; for % Aggregation (normalized to GFP-TDP43CTF alone): GFP-TDP43CTF reporter
T2 construct: expressed in transfected cells; host or cells: HEK293
Protocol: as §1
In some instances, aggregation of TDP-43 (full-length of C-terminal fragment) GFP reporter constructs (described below) were detected in vivo using fluorescence microscopy. Cultured cells expressing the reporter constructs as well as the fusion protein comprising the J domain and TDP-43-binding domain were washed with PBS and fixed with 4% paraformaldehyde in PBS for 5 minutes. After three 5-min washes with PBS, nuclear DNA was stained with DAPI. Percentage of cells containing TDP-43 (GFP foci) in transfected cells was counted.
We first investigated whether the fusion molecule of the present invention targeting TDP-43 ameliorates its aggregation in cultured cells. To this end, we generated GFP-based reporter constructs GFP-TDP43 and GFP-TDP43, wherein GFP was fused at its C-terminus to either the full-length human TDP-43 protein or the C-terminal fragment TDP-43 which is known to form cytoplasmic aggregation and cytotoxicity (See Table 8 below). HEK293 cells were cultured and transfected with the plasmids encoding the full-length TDP43 or the C-terminal fragment of TDP43, containing the C-terminal 207 amino acids TDP-43 (amino acids 208-414 of human TDP-43) as a GFP fusion [GFP-TDP43FL (SEQ ID NO: 101) or GFP-TDP43CTF (SEQ ID NO: 102)].

GFP-TDP43FL [3] = target: T3, GFP-TDP43FL (Homo sapiens, UniProt Q13148); assay: Immunoblot (anti-GFP) of reporter level in cell extracts; conditions: cell extracts (FIG. 5)
T3 construct: expressed in transfected cells; host or cells: HEK293
Protocol: as §1, §2

GFP-TDP43FL [4] = target: T3, GFP-TDP43FL; assay: Fluorescence microscopy of GFP-TDP43FL aggregation (GFP foci) in transfected HEK293 cells; conditions: GFP-TDP43FL reporter, HEK293 cells, Table 10 (FIG. 3/4)
Protocol: as §1
In some instances, aggregation of TDP-43 (full-length of C-terminal fragment) GFP reporter constructs (described below) were detected in vivo using fluorescence microscopy. Cultured cells expressing the reporter constructs as well as the fusion protein comprising the J domain and TDP-43-binding domain were washed with PBS and fixed with 4% paraformaldehyde in PBS for 5 minutes. After three 5-min washes with PBS, nuclear DNA was stained with DAPI. Percentage of cells containing TDP-43 (GFP foci) in transfected cells was counted. […]

B1: 15 (protein)
chain: MDYYKILGVDKNASEDEIKKAYRKRALMHHPDRHSGASAEVQKEEEKKFKEVGEAFTILSDPKKKTRYDSGQDIGGGGSGGGGSGGGGSGGGGSAAAEVQLQQSGAELVKPGASVKLSCTASGFNIKDYYMHWVKQRTEQGLEWIGRIDPEDGETKYAPKFQGKATITADTSSNTAYLQLSSLTSEDTAVYYCTIIYYYGSRYVDYWGQGTTLTVSGGGGSGGGGSGGGGSEIVLTQSPTTMAASPGEKITITCSASSSISSSYLHWYQQKPGFSPKLLIYRTSNLASGVPARFSGSGSGTSYSLTIGTMEAEDVATYYCQQGSSIPLTFGSGTKLEI
% Phospho-TDP43 density (normalized to GFP-TDP43CTF alone) [1]: 47.89%

B2: 19 (protein)
chain: MGKDYYQTLGLARGASDEEIKRAYRRQALRYHPDKNKEPGAEEKFKEIAEAYDVLSDPRKREIFDRYGEEGLKGSEVQLQQSGAELVKPGASVKLSCTASGFNIKDYYMHWVKQRTEQGLEWIGRIDPEDGETKYAPKFQGKATITADTSSNTAYLQLSSLTSEDTAVYYCTIIYYYGSRYVDYWGQGTTLTVSGGGGSGGGGSGGGGSEIVLTQSPTTMAASPGEKITITCSASSSISSSYLHWYQQKPGFSPKLLIYRTSNLASGVPARFSGSGSGTSYSLTIGTMEAEDVATYYCQQGSSIPLTFGSGTKLEI
% Phospho-TDP43 density (normalized to GFP-TDP43CTF alone) Insoluble fraction ([2]; insoluble fraction, Table 14 (FIG. 14)): 22.77%
% Phospho-TDP43 density (normalized to GFP-TDP43CTF alone) Soluble fraction ([2]; soluble fraction, Table 14 (FIG. 14)): 11.20%

B3: 11 (protein)
chain: MSVVGLDVGSQSCYIAVARAGGIETIANEFSDRCTPSVISFGSKNRTIGVAAKNQQITHANNTVSNFKRFHGRAFNDPFIQKEKENLSYDLVPLKNGGVGIKVMYMGEEHLFSVEQITAMLLTKLKETAENSLKKPVTDCVISVPSFFTDAERRSVLDAAQIVGLNCLRLMNDMTAVALNYGIYKQDLPSLDEKPRIVVFVDMGHSAFQVSACAFNKGKLKVLGTAFDPFLGGKNFDEKLVEHFCAEFKTKYKLDAKSKIRALLRLYQECEKLKKLMSSNSTDLPLNIECFMNDKDVSGKMNRSQFEELCAELLQKIEVPLYSLLEQTHLKVEDVSAVEIVGGATRIPAVKERIAKFFGKDISTTLNADEAVARGCALQCAILSPAFKVREFSVTDAVPFPISLIWNHDSEDTEGVHEVFSRNHAAPFSKVLTFLRRGPFELEAFYSDPQGVPYPEAKIGRFVVQNVSAQKDGEKSRVKVKVRVNTHGIFTISTASMVEKVPTEENEMSSEADMECLNQRPPENPDTDANEKKVDQPPEAKKPKIKVVNVELPIEANLVWQLGKDLLNMYIETEGKMIMQDKLEKERNDAKNAVEEYVYEFRDKLCGPYEKFICEQDHQNFLRLLTETEDWLYEEGEDQAKQAYVDKLEELMKIGTPVKVRFQEAEERPKMFEELGQRLQHYAKIAADFRNKDEKYNHIDESEMKKVEKSVNEVMEWMNNVMNAQAKKSLDQDPVVRAQEIKTKIKELNNTCEPVVTQPKPKIESPKLERTPNGPNIDKKEEDLEDKNNFGAEPPHQNGECYPNEKNSVNMDLD
% Aggregation (normalized to GFP-TDP43CTF alone) (GFP-TDP43CTF; Table 12 (FIG. 8/9A)): 115.34%

B4: Construct 2: scFv(3B12A)-only control; binds TDP-43 (protein)
scFv: MGTGSEFDIAAAEVQLQQSGAELVKPGASVKLSCTASGFNIKDYYMHWVKQRTEQGLEWIGRIDPEDGETKYAPKFQGKATITADTSSNTAYLQLSSLTSEDTAVYYCTIIYYYGSRYVDYWGQGTTLTVSGGGGSGGGGSGGGGSEIVLTQSPTTMAASPGEKITITCSASSSISSSYLHWYQQKPGFSPKLLIYRTSNLASGVPARFSGSGSGTSYSLTIGTMEAEDVATYYCQQGSSIPLTFGSGTKLEI
aggregation of GFP-TDP43CTF reporter in cells (in words) (GFP-TDP43CTF; vs reporter alone): did not reduce aggregation
levels of the full-length reporter construct (GFP-TDP43FL), anti-GFP immunoblot (in words) (GFP-TDP43FL [3]): No differences

B5: 2 (protein)
scFv: MGTGSEFDIAAAEVQLQQSGAELVKPGASVKLSCTASGFNIKDYYMHWVKQRTEQGLEWIGRIDPEDGETKYAPKFQGKATITADTSSNTAYLQLSSLTSEDTAVYYCTIIYYYGSRYVDYWGQGTTLTVSGGGGSGGGGSGGGGSEIVLTQSPTTMAASPGEKITITCSASSSISSSYLHWYQQKPGFSPKLLIYRTSNLASGVPARFSGSGSGTSYSLTIGTMEAEDVATYYCQQGSSIPLTFGSGTKLEI
% Aggregation (normalized to GFP-TDP43CTF alone) (GFP-TDP43CTF; Table 10 (FIG. 3/4)): 80.05%
% Aggregation (normalized to GFP-TDP43CTF alone) (GFP-TDP43CTF; Table 12 (FIG. 8/9A)): 98.40%
% Aggregation (normalized to GFP-TDP43CTF alone) (GFP-TDP43FL [4]): 5.86%
% Phospho-TDP43 density (normalized to GFP-TDP43CTF alone) [1]: 122.81%

B6: Construct 16: comprises a J domain without the consensus HPD sequence (SEQ ID NO: 16), fused to scFv(3B12A) (protein)
chain: MGQDYYSVLGITRNSEDAQIKQAYRRLALKHHPLKSNEPSSAEIFRQIAEAYDVLSDPMKRGIYDKFGEEGLKGGDIGGGGSGGGGSGGGGSGGGGSAAAEVQLQQSGAELVKPGASVKLSCTASGFNIKDYYMHWVKQRTEQGLEWIGRIDPEDGETKYAPKFQGKATITADTSSNTAYLQLSSLTSEDTAVYYCTIIYYYGSRYVDYWGQGTTLTVSGGGGSGGGGSGGGGSEIVLTQSPTTMAASPGEKITITCSASSSISSSYLHWYQQKPGFSPKLLIYRTSNLASGVPARFSGSGSGTSYSLTIGTMEAEDVATYYCQQGSSIPLTFGSGTKLEI
ability to reduce aggregation of the GFP-TDP43CTF reporter construct (in words, with Tables 13 and 14) ([2]; HEK293 cells): not able to reduce aggregation

B7: 16 (protein)
chain: MGQDYYSVLGITRNSEDAQIKQAYRRLALKHHPLKSNEPSSAEIFRQIAEAYDVLSDPMKRGIYDKFGEEGLKGGDIGGGGSGGGGSGGGGSGGGGSAAAEVQLQQSGAELVKPGASVKLSCTASGFNIKDYYMHWVKQRTEQGLEWIGRIDPEDGETKYAPKFQGKATITADTSSNTAYLQLSSLTSEDTAVYYCTIIYYYGSRYVDYWGQGTTLTVSGGGGSGGGGSGGGGSEIVLTQSPTTMAASPGEKITITCSASSSISSSYLHWYQQKPGFSPKLLIYRTSNLASGVPARFSGSGSGTSYSLTIGTMEAEDVATYYCQQGSSIPLTFGSGTKLEI
% Phospho-TDP43 density (normalized to GFP-TDP43CTF alone) [1]: 106.49%
